Results as given in the supplement of paper PMC10724198.
± gives the standard deviation of the averaged measurements.

system: Saccharomyces cerevisiae; test: protein stability index of tFT-peptide fusion (C-terminal peptide) (PSI (0-1 scale)); higher = more stable (slower turnover); conditions: genetic background: das1 deletion; temperature: 30 C
Method: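 MPS profiling in S. cerevisiae of the yeast C-terminome library: the last 12 aa of each annotated ORF are fused to the C-terminus of a sfGFP-mCherry timer, after a GGGS linker. Cells are FACS-sorted into 8 mCherry/sfGFP bins and deep-sequenced. PSI runs from 0 (unstable) to 1 (stable); wild type and das1Δ backgrounds, two technical replicates each.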

Which protein stability index does the source give for TVETLLKLFTKS [SLD7 C-terminal 12 aa] here?
The protein stability index was 0.6879 ± 0.0025.

“TVRKGVYMRLYY [YNL146C-A C-terminal 12 aa]” was tested. Which protein stability index did it give?
The protein stability index was 0.668 ± 0.0024.

TYYRRRATANSL [YMR155W C-terminal 12 aa] was tested. Which protein stability index did it give?
Its protein stability index is 0.6958 ± 0.0045.

With VACCGCNMTVAY [YIL058W C-terminal 12 aa] as the sequence, how does the protein stability index read?
Its protein stability index is 0.528 ± 0.015.

VANTTNMNMNLM [DIA1 C-terminal 12 aa] was tested. Which protein stability index did it give?
The protein stability index was 0.6954 ± 0.0035.

For VDKYEAGMSITK [SWC4 C-terminal 12 aa], which protein stability index is on record?
Its protein stability index is 0.688 ± 0.0058.

For “VFEISNKELFLT [YIL029W-A C-terminal 12 aa]”, which protein stability index is on record?
Its protein stability index is 0.6922 ± 0.0023.

Which protein stability index does the source give for VFLKKDTDIYIC [YML084W C-terminal 12 aa] here?
Its protein stability index is 0.63 ± 0.019.

For VFRIVARGYVGW [BBC1 C-terminal 12 aa], which protein stability index is on record?
Its protein stability index is 0.701 ± 0.04.

Which protein stability index does the source give for VFVTGILSTVYI [AIT1 C-terminal 12 aa] here?
Its protein stability index is 0.6444 ± 0.0011.

For VGELDIKFDLKF [RTF1 C-terminal 12 aa], which protein stability index is on record?
Its protein stability index is 0.733 ± 0.018.

How did the protein stability index turn out when VGLDDLKKLVTK [PCF11 C-terminal 12 aa] was run?
Its protein stability index is 0.713 ± 0.03.

With VIAQIDELFEGY [THG1 C-terminal 12 aa] as the sequence, how does the protein stability index read?
The protein stability index was 0.726 ± 0.0083.

VIFLFLRTIHFL [PGC1 C-terminal 12 aa] was tested. Which protein stability index did it give?
Its protein stability index is 0.501 ± 0.015.

With VIGEKGITDSSD [DMC1 C-terminal 12 aa] as the sequence, how does the protein stability index read?
The protein stability index was 0.733 ± 0.023.

VIWDNNTKFCWF [YGR111W C-terminal 12 aa] was tested. Which protein stability index did it give?
Its protein stability index is 0.742 ± 0.0097.

VIWEKVYESKTK [LSM8 C-terminal 12 aa] was tested. Which protein stability index did it give?
Its protein stability index is 0.724 ± 0.018.

For VIWQERETTANK [EMI1 C-terminal 12 aa], which protein stability index is on record?
Its protein stability index is 0.724 ± 0.033.

VKHKVVSVDEDN [MPM1 C-terminal 12 aa] was tested. Which protein stability index did it give?
Its protein stability index is 0.681 ± 0.014.

With VKKEPLNEESKP [MIA40 C-terminal 12 aa] as the sequence, how does the protein stability index read?
The protein stability index was 0.7041 ± 0.0021.

VKNSPRLLLFFI [YOL160W C-terminal 12 aa] was tested. Which protein stability index did it give?
Its protein stability index is 0.673 ± 0.041.

Which protein stability index does the source give for “VKSNPQPAYTFQ [YFR012W-A C-terminal 12 aa]” here?
The protein stability index was 0.679 ± 0.02.

For VLDDAEETKESH [ATP14 C-terminal 12 aa], which protein stability index is on record?
The protein stability index was 0.689 ± 0.024.

How did the protein stability index turn out when VLERVSRGAGSH [COF1 C-terminal 12 aa] was run?
The protein stability index was 0.7039 ± 0.0025.

How did the protein stability index turn out when VLLTAYKKLLTK [KEG1 C-terminal 12 aa] was run?
Its protein stability index is 0.685 ± 0.021.

With VLMKQLDEIIRK [BUD14 C-terminal 12 aa] as the sequence, how does the protein stability index read?
The protein stability index was 0.6982 ± 0.0046.

For VLPTWADKVINE [SPE4 C-terminal 12 aa], which protein stability index is on record?
The protein stability index was 0.69 ± 0.0095.

VMDDIISELTNE [KRE28 C-terminal 12 aa] was tested. Which protein stability index did it give?
The protein stability index was 0.713 ± 0.019.

Which protein stability index does the source give for VNQKQPPPQSYV [YEL067C C-terminal 12 aa] here?
Its protein stability index is 0.7165 ± 0.00072.

VPLESTKRQPLH [YBR053C C-terminal 12 aa] was tested. Which protein stability index did it give?
Its protein stability index is 0.719 ± 0.0097.

For VPPRSASASSQR [SPC97 C-terminal 12 aa], which protein stability index is on record?
Its protein stability index is 0.689 ± 0.018.

Which protein stability index does the source give for VPQEDDRLHKLK [AIM3 C-terminal 12 aa] here?
The protein stability index was 0.701 ± 0.016.

Which protein stability index does the source give for VQLIDGPEEMHR [SHO1 C-terminal 12 aa] here?
The protein stability index was 0.726 ± 0.009.

With VQWSRPRRGDVL [LAM6 C-terminal 12 aa] as the sequence, how does the protein stability index read?
The protein stability index was 0.7079 ± 0.0014.

With VRGRKSRNTSRV [REP2 C-terminal 12 aa] as the sequence, how does the protein stability index read?
The protein stability index was 0.711 ± 0.013.

How did the protein stability index turn out when VSDAMFDQGDVF [GDH1 C-terminal 12 aa] was run?
Its protein stability index is 0.72756 ± 0.0006.

Which protein stability index does the source give for VSKLNGFSFTDI [ASE1 C-terminal 12 aa] here?
The protein stability index was 0.669 ± 0.0088.

Which protein stability index does the source give for “VSYFSIFSLFFF [YKL096C-B C-terminal 12 aa]” here?
The protein stability index was 0.667 ± 0.047.

With VVDLIMEYLQDT [YDL057W C-terminal 12 aa] as the sequence, how does the protein stability index read?
The protein stability index was 0.699 ± 0.013.

For VVFLSVLKRNDL [YOL099C C-terminal 12 aa], which protein stability index is on record?
The protein stability index was 0.685 ± 0.031.

For VVPVLMGNMKVA [YEL073C C-terminal 12 aa], which protein stability index is on record?
Its protein stability index is 0.69 ± 0.01.

Which protein stability index does the source give for VWTLELSVIGVQ [WHI2 C-terminal 12 aa] here?
Its protein stability index is 0.542 ± 0.011.

WAINESEGYGFR [HUL4 C-terminal 12 aa] was tested. Which protein stability index did it give?
The protein stability index was 0.727 ± 0.016.

Which protein stability index does the source give for WAREQQKRQLSL [KAP95 C-terminal 12 aa] here?
Its protein stability index is 0.725 ± 0.0096.

For WKEVLKFPKSFN [HXT15 C-terminal 12 aa], which protein stability index is on record?
The protein stability index was 0.724 ± 0.0077.

Which protein stability index does the source give for WKKFIPKTWLSS [CQD2 C-terminal 12 aa] here?
The protein stability index was 0.7 ± 0.0086.

How did the protein stability index turn out when WKKFLKFSKNSD [HXT13 C-terminal 12 aa] was run?
Its protein stability index is 0.7176 ± 0.0052.

For WKLLDDSELGWY [RGT1 C-terminal 12 aa], which protein stability index is on record?
Its protein stability index is 0.836 ± 0.0089.

For WLKDQIIGEMTV [CAL4 C-terminal 12 aa], which protein stability index is on record?
Its protein stability index is 0.696 ± 0.036.

Which protein stability index does the source give for WPVTKPEDTKDN [ZWF1 C-terminal 12 aa] here?
The protein stability index was 0.699 ± 0.013.

WRPQQPGQIEQA [YLR101C C-terminal 12 aa] was tested. Which protein stability index did it give?
The protein stability index was 0.723 ± 0.03.

Which protein stability index does the source give for WTKDLGCWSLYK [HIR1 C-terminal 12 aa] here?
The protein stability index was 0.716 ± 0.025.

Which protein stability index does the source give for WTNYLEKESEKD [RUD3 C-terminal 12 aa] here?
The protein stability index was 0.711 ± 0.04.

How did the protein stability index turn out when YAEGSLVKTEKL [FAA2 C-terminal 12 aa] was run?
Its protein stability index is 0.70242 ± 0.0001.

YCFAKNDLFFNN [POM152 C-terminal 12 aa] was tested. Which protein stability index did it give?
Its protein stability index is 0.743 ± 0.014.

YCPELGKTECFD [FMP30 C-terminal 12 aa] was tested. Which protein stability index did it give?
The protein stability index was 0.691 ± 0.0061.

Which protein stability index does the source give for YDANGSSSTIKR [MAM3 C-terminal 12 aa] here?
The protein stability index was 0.736 ± 0.011.

With YDEIVPLMSDEE [ECM21 C-terminal 12 aa] as the sequence, how does the protein stability index read?
Its protein stability index is 0.7035 ± 0.0035.

YDLQALFKYFFS [ADY3 C-terminal 12 aa] was tested. Which protein stability index did it give?
The protein stability index was 0.691 ± 0.011.

For YFKVFDWCKQKR [CLB6 C-terminal 12 aa], which protein stability index is on record?
Its protein stability index is 0.681 ± 0.018.

For YISDHIWKTSSH [YOR302W C-terminal 12 aa], which protein stability index is on record?
Its protein stability index is 0.743 ± 0.04.

With YKNRPNKEKDTL [STB6 C-terminal 12 aa] as the sequence, how does the protein stability index read?
Its protein stability index is 0.693 ± 0.021.

Which protein stability index does the source give for YKSKRNTPTMLS [ISU1 C-terminal 12 aa] here?
The protein stability index was 0.714 ± 0.027.

“YLARRKPSIELR [YPR170W-B C-terminal 12 aa]” was tested. Which protein stability index did it give?
Its protein stability index is 0.716 ± 0.03.

With YLKNFFVKQKVV [ERP5 C-terminal 12 aa] as the sequence, how does the protein stability index read?
The protein stability index was 0.549 ± 0.0073.

YLLENEPKDSFA [DCP1 C-terminal 12 aa] was tested. Which protein stability index did it give?
The protein stability index was 0.703 ± 0.032.

YLNCTEREALRP [AEP1 C-terminal 12 aa] was tested. Which protein stability index did it give?
The protein stability index was 0.6794 ± 0.0038.

Which protein stability index does the source give for “YNIKRVLGVVYC [YAL067W-A C-terminal 12 aa]” here?
The protein stability index was 0.345 ± 0.031.

YNPGLSMDFLTA [BCD1 C-terminal 12 aa] was tested. Which protein stability index did it give?
Its protein stability index is 0.6899 ± 0.0018.

With YNSLKKGASKSK [CNL1 C-terminal 12 aa] as the sequence, how does the protein stability index read?
The protein stability index was 0.714 ± 0.021.

With YNTTSITNSTSW [SRL1 C-terminal 12 aa] as the sequence, how does the protein stability index read?
Its protein stability index is 0.711 ± 0.016.

Which protein stability index does the source give for YPGAKTLTYTSR [CMI8 C-terminal 12 aa] here?
The protein stability index was 0.703 ± 0.013.

For YPTFDDNNFFAL [RFA2 C-terminal 12 aa], which protein stability index is on record?
The protein stability index was 0.732 ± 0.012.

For YSDEASAQKKRF [RPS2 C-terminal 12 aa], which protein stability index is on record?
The protein stability index was 0.698 ± 0.0098.

With YTPDQGVSLIDL [ENT2 C-terminal 12 aa] as the sequence, how does the protein stability index read?
Its protein stability index is 0.6978 ± 0.005.

Which protein stability index does the source give for YTSWQTIKMWSQ [AVT3 C-terminal 12 aa] here?
The protein stability index was 0.658 ± 0.007.

Which protein stability index does the source give for YVPPPTYTEMAS [ART10 C-terminal 12 aa] here?
The protein stability index was 0.7074 ± 0.0038.

With YVSHKGFITEDL [RPL9A C-terminal 12 aa] as the sequence, how does the protein stability index read?
The protein stability index was 0.689 ± 0.055.
